Assays:
hCD3 (human CD3) = hCD3 (human CD3) (Homo sapiens, UniProt P07766); experiment: Kinetics and affinity of hCD3/human IgG interactions by SPR (Bio-Rad Proteon XPR36); format: binding; settings: 37° C.
Experimental: All experiments were performed on a Bio-Rad Proteon XPR36 surface Plasmon resonance biosensor (Bio-Rad, Hercules, Calif.). An array of anti-CD3 antibodies was prepared using an amine-coupling method on a Bio-Rad GLC Sensor Chip similar to that described in Abdiche, et al., Anal. Biochem. 411, 139-151 (2011). The analysis temperature for the immobilization was 25° C. and the running buffer was HBS-T+(10 mM HEPES, 150 mM NaCl, 0.05% Tween-20, pH 7.4). Channels were activated in the analyte (horizontal) direction by injecting a mixture of 1 mM ECD and 0.25 mM NHS for 3 minutes at a flow rate of 30 μL/min. IgGs were immobilized on the activated spots by injecting them in the ligand (vertical) direction at 20 μg/mL in 10 mM Acetate pH 4.5 buffer for 1.5 minutes at […]. The activated surfaces were blocked by injecting 1M ethanolamine, pH 8.5 in the analyte direction for 3 minutes at 30 μL/min.
The analysis temperature for the hCD3 binding analysis was 37° C. or 25° C. in a running buffer of HBS-T+, supplemented with 1 mg/mL BSA. A kinetic titration method was employed for the interaction analysis as described in Abdiche, et al. The hCD3 (human CD3) analyte was injected in the analyte direction using a series of injections from low to high concentration. The concentrations used were 0.08 nM, 0.4 nM, 2 nM, 10 nM and 50 nM (a 5-membered series, with a 5-fold dilution factor and top concentration of 50 nM). The association time for a given analyte dilution was two minutes. Immediately after the 50 nM hCD3 injection, dissociation was monitored for 2 hours. Prior to the hCD3 analyte injections, buffer was injected 5 times using the same association and dissociation times at the hCD3 analyte cycles to prepare a buffer blank sensorgram for double-referencing purposes (double referencing as described in Myszka, J. Mol. Recognit. 12, 279-284 (1999).
The sensorgrams were double-referenced and fit to a 1:1 Langmuir with mass transport kinetic titration model in BIAevaluation Software version 4.1.1 (GE Lifesciences, Piscataway, N.J.).

cynomolgus PBMC = experiment: PBMC T cell proliferation by 3H-thymidine incorporation; format: cell-based; settings: FIG. 10A/10B, 2 day cultures
Experimental: (§1) Human anti-CD3 antibodies were cloned from immunized mouse, expressed as mouse IgG1, and purified by Protein A affinity beads. Human/Cynomolgus peripheral blood mononuclear cells (hu/cyPBMC) were prepared by Ficoll (Density: 1.083 g/mL, GE) density gradient centrifugation from blood filters obtained from local blood banks. Erythrocytes were removed by incubating in LCK buffer (155 mM NH4Cl, 10 mM KHCO3, […]; Gibco) for 3 minutes at room temperature. Cells were centrifuged for 5 min at 600 g. The supernatant containing the lysed erythrocytes was discarded, and the PBMC were washed twice in 50 ml 1×PBS/1% BSA/1 mM EDTA. The pelleted cells were adjusted to 10^7 cells per ml in culture media, X-VIVO-15, serum free media (Lonza,), and the PBMC were seeded as 10^6 (100 ul) per-well to round bottom 96 well tissue culture plates. Selected Abs are 10× serial diluted from 1000 ng to 1 ng per mL for mixing with human PBMC and 5× serial diluted from 5000 ng to 200 ng per mL for mixing with cynomolgus PBMC. For analysis of PBMC T cell proliferation by ^3H-thymidine incorporation, 2 day cultures were performed in triplicate. During the final 16 h of culture ^3H-thymidine ([…]) was added, and incorporation was measured. Cells are harvested and lysed, DNA is captured onto glass-fiber filter. Radioactivity (cpm) as measure for proliferation by counting on a scintillation beta-counter.

human PBMC = experiment: as above; format: cell-based; settings: FIG. 10A/10B, 2 day cultures
Experimental: as §1

CD3 = CD3 (Homo sapiens, UniProt P07766); experiment: Biacore kinetics of anti-CD3 hIgG2dA bispecifics at 37° C.; format: binding
Chain of CD3 (P07766 23-126 limits assumed): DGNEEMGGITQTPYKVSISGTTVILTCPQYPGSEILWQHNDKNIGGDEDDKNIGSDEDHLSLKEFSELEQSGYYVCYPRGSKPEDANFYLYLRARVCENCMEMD
Chain of CD3 (P04234 22-105 partner limits assumed): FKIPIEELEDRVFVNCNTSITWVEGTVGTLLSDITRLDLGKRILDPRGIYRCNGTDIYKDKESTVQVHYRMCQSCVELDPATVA

Chain of hCD3 (human CD3) (P07766 23-126 limits assumed): as the sequence (P07766 23-126 limits assumed) above
Chain of hCD3 (human CD3) (P04234 22-105 partner limits assumed): as the sequence (P04234 22-105 partner limits assumed) above

Molecule | ka huCD3ed @37° C. (hCD3 (human CD3)) | kd huCD3ed @37° C. (hCD3 (human CD3)) | Kd (CD3) | ka (CD3) | kd (CD3) | also measured
h2B4-VH-wt VL_TK: anti-CD3 antibody (antibody, V domains shown) VH: EVQLVESGGGLVQPGGSLRLSCAASGFTFSDYYMTWVRQAPGKGLEWVAFIRNRARGYTSDHNASVKGRFTISRDNAKNSLYLQMNSLRAEDTAVYYCARDRPSYYVLDYWGQGTTVTVSS VL: DIVMTQSPDSLAVSLGERATINCKSSQSLFNVRSRKNYLAWYQQKPGQPPKLLISWASTRESGVPDRFSGSGSGTDFTLTISSLQAEDVAVYYCKQSYDLFTFGSGTKLEIK | 380000 M⁻¹ s⁻¹ | 0.014 s⁻¹ |  |  |  | 
h2B4-VH-yaps VL_TK: anti-CD3 antibody (antibody, V domains shown) VH: EVQLVESGGGLVQPGGSLRLSCAASGFTFSDYYMTWVRQAPGKGLEWVAFIRNRARGYTSDYAPSVKGRFTISRDNAKNSLYLQMNSLRAEDTAVYYCARDRPSYYVLDYWGQGTTVTVSS VL: DIVMTQSPDSLAVSLGERATINCKSSQSLFNVRSRKNYLAWYQQKPGQPPKLLISWASTRESGVPDRFSGSGSGTDFTLTISSLQAEDVAVYYCKQSYDLFTFGSGTKLEIK | 250000 M⁻¹ s⁻¹ | 0.023 s⁻¹ |  |  |  | 
h2B4-VH-yaes VL_TK: anti-CD3 antibody (antibody, V domains shown) VH: EVQLVESGGGLVQPGGSLRLSCAASGFTFSDYYMTWVRQAPGKGLEWVAFIRNRARGYTSDYAESVKGRFTISRDNAKNSLYLQMNSLRAEDTAVYYCARDRPSYYVLDYWGQGTTVTVSS VL: DIVMTQSPDSLAVSLGERATINCKSSQSLFNVRSRKNYLAWYQQKPGQPPKLLISWASTRESGVPDRFSGSGSGTDFTLTISSLQAEDVAVYYCKQSYDLFTFGSGTKLEIK | 230000 M⁻¹ s⁻¹ | 0.023 s⁻¹ |  |  |  | 
h2B4-VH-hnps VL_TK: anti-CD3 antibody (antibody, V domains shown) VH: EVQLVESGGGLVQPGGSLRLSCAASGFTFSDYYMTWVRQAPGKGLEWVAFIRNRARGYTSDHNPSVKGRFTISRDNAKNSLYLQMNSLRAEDTAVYYCARDRPSYYVLDYWGQGTTVTVSS VL: DIVMTQSPDSLAVSLGERATINCKSSQSLFNVRSRKNYLAWYQQKPGQPPKLLISWASTRESGVPDRFSGSGSGTDFTLTISSLQAEDVAVYYCKQSYDLFTFGSGTKLEIK | 390000 M⁻¹ s⁻¹ | 0.016 s⁻¹ |  |  |  | 
h2B4-VH-yads VL_TK: anti-CD3 antibody (antibody, V domains shown) VH: EVQLVESGGGLVQPGGSLRLSCAASGFTFSDYYMTWVRQAPGKGLEWVAFIRNRARGYTSDYADSVKGRFTISRDNAKNSLYLQMNSLRAEDTAVYYCARDRPSYYVLDYWGQGTTVTVSS VL: DIVMTQSPDSLAVSLGERATINCKSSQSLFNVRSRKNYLAWYQQKPGQPPKLLISWASTRESGVPDRFSGSGSGTDFTLTISSLQAEDVAVYYCKQSYDLFTFGSGTKLEIK | 240000 M⁻¹ s⁻¹ | 0.021 s⁻¹ |  |  |  | 
1A4: anti-CD3 antibody cloned from mouse hybridoma, expressed as mouse IgG1 (antibody, V domains shown, mouse IgG1 constant regions) VH: QVQLQQSGPDLVKPGASVEISCKASGYSFTTYYLHWVRQRPGQGLEWIGWIFPGSDNTKYNEKFKGKATLTADTSSSTAYMQLSSLTSEDSAVYFCARNRDYYFDYWGQGTTVTVSS VL: DIVMSQSPSSLAVSAGEKVTMSCKSSQSLLNSRTRKNYLAWYQQKPGQSPKLLIYWASTRASGVPDRFTGSGSGTDFTLTISSVQAEDLAIYYCKQSFILRTFGGGTKLEIK |  |  |  |  |  | Thymidine incorporation (cynomolgus PBMC): had Thymidine incorporation reading; Thymidine incorporation (human PBMC): had Thymidine incorporation reading
7A3: anti-CD3 antibody cloned from mouse hybridoma, expressed as mouse IgG1 (antibody, V domains shown, mouse IgG1 constant regions) VH: EVQLQQSGAELVRPGALVKLSCKGSGFNIKDYYIHWVKQRPEQGLEWIGWIDPENGNNKYDPKFQGKASITADTSSNIAYLQLSSLTSEDTAVYYCARNDNYAFDYWGQGTTVTVSS VL: DIVVSQSPSSLAVSAGEKVIMSCKSSQSLLNSRTRKNYLAWYQLKPGQSPKLLIYSASTRESGVPDRFTGSGSGTDFTLTISSVQTEDLAVYYCMQSFTLRTFGGGTKLEIK |  |  |  |  |  | Thymidine incorporation (cynomolgus PBMC): had Thymidine incorporation reading; Thymidine incorporation (human PBMC): had Thymidine incorporation reading

Continued, in another order:

ka huCD3ed @37° C. (hCD3 (human CD3)) | kd huCD3ed @37° C. (hCD3 (human CD3)) | Kd (CD3) | ka (CD3) | kd (CD3) | Molecule | also measured
 |  | 45 nM | 1.29e+06 M⁻¹ s⁻¹ | 0.0581 s⁻¹ | h25A8-B5_Ep (antibody, V domains shown, left off: another chain or arm of the molecule; a dimerising Fc or GST; small tags and cut ends) VH: EVQLVESGGGLVKPGGSLRLSCAASGFTFSTYAMNWVRQAPGKGLEWVGRIRSKINNYATYYAESVKGRFTISRDDSKNTLYLQMNSLKTEDTAVYYCVRHETLRSGISWFASWGQGTLVTVSS VL: QAVVTQEPSLTVSPGGTVTLTCRSSTGAVTTSNYANWVQQKPGQAPRGLIGGTNTRAPGTPARFSGSLLGGKAALTLSGAQPEDEAEYYCVLWYNNYWVFGGGTKLTVL | 
 |  | 18.3 nM | 1.2e+06 M⁻¹ s⁻¹ | 0.0219 s⁻¹ | h25A8-B13_Ep: anti-EpCam/CD3 bispecific, human IgG2dA, anti-CD3 arm h25A8-B13 (antibody, V domains shown, left off: another chain or arm of the molecule; a dimerising Fc or GST; small tags and cut ends, anti-EpCam/CD3 bispecific, human IgG2dA, anti-CD3 arm h25A8-B13) VH: EVQLVESGGGLVKPGGSLRLSCAASGFTFSTYAMNWVRQAPGKGLEWVGRIRSKINNYATYYAESVKGRFTISRDDSKNTLYLQMNSLKTEDTAVYYCVRHETLRSGISWFASWGQGTLVTVSS VL: QAVVTQEPSLTVSPGGTVTLTCRTSTGAVTTSNYANWVQQKPGQAPRGLIGGTNTRAPGTPARFSGSLLGGKAALTLSGAQPEDEAEYYCVLWYNNHWVFGGGTKLTVL | 
 |  | 21 nM | 1.15e+06 M⁻¹ s⁻¹ | 0.0241 s⁻¹ | h25A8-B12_Ep: anti-EpCam/CD3 bispecific, human IgG2dA, anti-CD3 arm h25A8-B12 (antibody, V domains shown, left off: another chain or arm of the molecule; a dimerising Fc or GST; small tags and cut ends, anti-EpCam/CD3 bispecific, human IgG2dA, anti-CD3 arm h25A8-B12) VH: EVQLVESGGGLVKPGGSLRLSCAASGFTFSTYAMNWVRQAPGKGLEWVGRIRSKINNYATYYAESVKGRFTISRDDSKNTLYLQMNSLKTEDTAVYYCVRHETLRSGISWFASWGQGTLVTVSS VL: QAVVTQEPSLTVSPGGTVTLTCRASTGAVTTSNYANWVQQKPGQAPRGLIGGTNTRAPGTPARFSGSLLGGKAALTLSGAQPEDEAEYYCVLWYNNHWVFGGGTKLTVL | 
 |  | 18.7 nM | 1.19e+06 M⁻¹ s⁻¹ | 0.0222 s⁻¹ | h25A8-B8_Ep (antibody, V domains shown, left off: another chain or arm of the molecule; a dimerising Fc or GST; small tags and cut ends) VH: EVQLVESGGGLVKPGGSLRLSCAASGFTFSTYAMNWVRQAPGKGLEWVGRIRSKINNYATYYAESVKGRFTISRDDSKNTLYLQMNSLKTEDTAVYYCVRHETLRSGISWFASWGQGTLVTVSS VL: QAVVTQEPSLTVSPGGTVTLTCRSSTGAVTTSNYANWVQQKPGQAPRGLIGGTNTRAPGTPARFSGSLLGGKAALTLSGAQPEDEAEYYCVLWYNNHWVFGGGTKLTVL | 
